Source: patent US20140228277A1 (Genentech, published 2014)
Starred links: 1 amine or outer side, 2 acyl side, 3 side chain; linkers in the order of their positions; H or OH if unused. Positions of bridges follow the written chain, without caps; N, C: chain ends. NH(CH2)3(OCH2CH2)2O(CH2)3NH = C(CN[*:1])COCCOCCOCCCN[*:2]

What was measured:
[1] = target: T1, human BACE1 ECD (22-457) G291A, His8 (human, UniProt P56817 22-457); experiment: ELISA; biotinylated BACE020 on plate-coated BACE1 ECD mutant; ratio to WT
T1 construct: also called G291A (230)
Protocol: (§1) Maxisorp microtiter plates (Nalge Nunc International, Rochester, N.Y.) were coated overnight at 4° C. with 2 μg/ml BACE1 mutant in 50 mM carbonate, pH 9.6. The coated wells were washed with buffer (PBS, 0.05% Polysorbate 20) and blocked with assay buffer (PBS, pH 7.4, 0.5% BSA, 0.05% Tween 20, 15 ppm Proclin) for 1 h at room temperature with gentle shaking. […] After washing, the amount of peptide bound to the plate was detected by the addition of Streptavidin-Horseradish Peroxidase Conjugate (GE Healthcare, Piscataway, N.J.) followed by the addition of TMB/H₂O₂ substrate (KPL, Gaithersburg, Md.). The reaction was quenched with 1 M phosphoric acid and the A₄₅₀ measured on a Molecular Devices SpectraMax Plus384 microplate reader. Concentrations to give half maximal effective concentration (EC₅₀) were determined using a 4-parameter non-linear regression curve-fitting program with Kaleidagraph (Synergy Software, Reading, Pa.). […] Concentrations to give half maximal inhibition concentration (IC₅₀) were determined using a 4-parameter non-linear regression curve-fitting program with Kaleidagraph.
(§2) The fold decrease in binding affinity was determined as the relative EC₅₀ values of EC₅₀ (mut)/EC₅₀ (WT), which are listed in Table 3.

[2] = target: T2, human BACE1 ECD (22-457) I171A, His8 (human, UniProt P56817 22-457); experiment: as above
T2 construct: also called I171A (110)
Protocol: as §1, §2

[3] = target: T3, human BACE1 ECD (22-457) N294A, His8 (human, UniProt P56817 22-457); experiment: as above
T3 construct: also called N294A (233)
Protocol: as §1, §2

[4] = target: T4, human BACE1 ECD (22-457) I179A, His8 (human, UniProt P56817 22-457); experiment: as above
T4 construct: also called I179A (118)
Protocol: as §1, §2

[5] = target: T5, human BACE1 ECD (22-457) K382A, His8 (human, UniProt P56817 22-457); experiment: as above
T5 construct: also called K382A (321)
Protocol: as §1, §2

[6] = target: T6, human BACE1 ECD (22-457) Q134A, His8 (human, UniProt P56817 22-457); experiment: as above
T6 construct: also called Q134A (73)
Protocol: as §1, §2

[7] = target: T7, human BACE1 ECD (22-457) D289A, His8 (human, UniProt P56817 22-457); experiment: as above
T7 construct: also called D289A (228)
Protocol: as §1, §2

[8] = target: T8, human BACE1 ECD (22-457) G74A, His8 (human, UniProt P56817 22-457); experiment: as above
T8 construct: also called G74A (13)
Protocol: as §1, §2

[9] = target: T9, human BACE1 ECD (22-457) D93A, His8 (human, UniProt P56817 22-457); experiment: as above
T9 construct: also called D93A (32)
Protocol: as §1, §2

[10] = target: T10, human BACE1 ECD (22-457) T390A, His8 (human, UniProt P56817 22-457); experiment: as above
T10 construct: also called T390A (329)
Protocol: as §1, §2

[11] = target: T11, human BACE1 ECD (22-457) F169A, His8 (human, UniProt P56817 22-457); experiment: as above
T11 construct: also called F169A (108)
Protocol: as §1, §2

[12] = target: human BACE1 ECD (22-457) R189A, His8 (human, UniProt P56817 22-457); experiment: as above
Protocol: as §1, §2

[13] = target: T12, human BACE1 ECD (22-457) T293A, His8 (human, UniProt P56817 22-457); experiment: as above
T12 construct: also called T293A (232)
Protocol: as §1, §2

[14] = target: T13, human BACE1 ECD (22-457) L91A, His8 (human, UniProt P56817 22-457); experiment: as above
T13 construct: also called L91A (30)
Protocol: as §1, §2

[15] = target: T14, human BACE1 ECD (22-457) T292A, His8 (human, UniProt P56817 22-457); experiment: as above
T14 construct: also called T292A (231)
Protocol: as §1, §2

[16] = target: T15, human BACE1 ECD (22-457) S96A, His8 (human, UniProt P56817 22-457); experiment: as above
T15 construct: also called S96A (35)
Protocol: as §1, §2

[17] = target: T16, human BACE1 ECD (22-457) R296A, His8 (human, UniProt P56817 22-457); experiment: as above
T16 construct: also called R296A (235)
Protocol: as §1, §2

[18] = target: T17, human BACE1 extracellular domain (residues 22-457), wild type, C-terminal His8 (human, UniProt P56817 22-457); experiment: ELISA; biotinylated BACE020 on plate-coated BACE1 ECD (WT, the reference)
T17 construct: Expressed in CHO cells with the BACE1 signal peptide; also called WT; BACE1 ECD
Protocol: as §1, §2

T7 sequence (P56817 other isoform, or with tags, fused parts or gaps D289A D289A): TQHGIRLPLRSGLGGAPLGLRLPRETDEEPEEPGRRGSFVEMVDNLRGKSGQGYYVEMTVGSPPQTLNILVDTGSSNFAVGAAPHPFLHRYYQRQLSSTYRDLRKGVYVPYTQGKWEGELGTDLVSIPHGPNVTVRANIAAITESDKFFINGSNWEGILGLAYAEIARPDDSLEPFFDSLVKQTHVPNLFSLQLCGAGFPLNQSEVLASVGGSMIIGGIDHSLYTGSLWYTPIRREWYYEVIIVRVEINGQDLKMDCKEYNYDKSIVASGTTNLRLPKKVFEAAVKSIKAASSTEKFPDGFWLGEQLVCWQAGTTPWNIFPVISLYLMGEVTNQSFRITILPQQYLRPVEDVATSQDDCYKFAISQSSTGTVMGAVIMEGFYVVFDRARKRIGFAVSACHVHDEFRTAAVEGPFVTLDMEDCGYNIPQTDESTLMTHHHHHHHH
T4 sequence (P56817 other isoform, or with tags, fused parts or gaps I179A I179A): as the sequence (P56817 other isoform, or with tags, fused parts or gaps D289A D289A) above, with I158A, A268D counted along it
T6 sequence (P56817 other isoform, or with tags, fused parts or gaps Q134A Q134A): as the sequence (P56817 other isoform, or with tags, fused parts or gaps D289A D289A) above, with Q113A, A268D counted along it
T11 sequence (P56817 other isoform, or with tags, fused parts or gaps F169A F169A): as the sequence (P56817 other isoform, or with tags, fused parts or gaps D289A D289A) above, with F148A, A268D counted along it
T16 sequence (P56817 other isoform, or with tags, fused parts or gaps R296A R296A): as the sequence (P56817 other isoform, or with tags, fused parts or gaps D289A D289A) above, with A268D, R275A counted along it
T12 sequence (P56817 other isoform, or with tags, fused parts or gaps T293A T293A): as the sequence (P56817 other isoform, or with tags, fused parts or gaps D289A D289A) above, with A268D, T272A counted along it
T14 sequence (P56817 other isoform, or with tags, fused parts or gaps T292A T292A): as the sequence (P56817 other isoform, or with tags, fused parts or gaps D289A D289A) above, with A268D, T271A counted along it
T8 sequence (P56817 other isoform, or with tags, fused parts or gaps G74A G74A): as the sequence (P56817 other isoform, or with tags, fused parts or gaps D289A D289A) above, with G53A, A268D counted along it
T13 sequence (P56817 other isoform, or with tags, fused parts or gaps L91A L91A): as the sequence (P56817 other isoform, or with tags, fused parts or gaps D289A D289A) above, with L70A, A268D counted along it
T15 sequence (P56817 other isoform, or with tags, fused parts or gaps S96A S96A): as the sequence (P56817 other isoform, or with tags, fused parts or gaps D289A D289A) above, with S75A, A268D counted along it
T3 sequence (P56817 other isoform, or with tags, fused parts or gaps N294A N294A): as the sequence (P56817 other isoform, or with tags, fused parts or gaps D289A D289A) above, with A268D, N273A counted along it
T2 sequence (P56817 other isoform, or with tags, fused parts or gaps I171A I171A): as the sequence (P56817 other isoform, or with tags, fused parts or gaps D289A D289A) above, with I150A, A268D counted along it
T5 sequence (P56817 other isoform, or with tags, fused parts or gaps K382A K382A): as the sequence (P56817 other isoform, or with tags, fused parts or gaps D289A D289A) above, with A268D, K361A counted along it
T9 sequence (P56817 other isoform, or with tags, fused parts or gaps D93A D93A): as the sequence (P56817 other isoform, or with tags, fused parts or gaps D289A D289A) above, with D72A, A268D counted along it
Chain of human BACE1 ECD (22-457) R189A, His8 (P56817 other isoform, or with tags, fused parts or gaps R189A R189A): as the sequence (P56817 other isoform, or with tags, fused parts or gaps D289A D289A) above, with R168A, A268D counted along it
T10 sequence (P56817 other isoform, or with tags, fused parts or gaps T390A T390A): as the sequence (P56817 other isoform, or with tags, fused parts or gaps D289A D289A) above, with A268D, T369A counted along it
T17 sequence (P56817 other isoform, or with tags, fused parts or gaps): as the sequence (P56817 other isoform, or with tags, fused parts or gaps D289A D289A) above, with A268D counted along it
T1 sequence (P56817 other isoform, or with tags, fused parts or gaps G291A G291A): as the sequence (P56817 other isoform, or with tags, fused parts or gaps D289A D289A) above, with A268D, G270A counted along it

B1: biotinylated BACE020 (Ac-NEESMYCRLLGIGCG-(PEG)3-biotin) (peptide)
peptide: Ac-NEESMYCRLLGIGCG-{NH(CH2)3(OCH2CH2)2O(CH2)3NH-biotin}
modifications: disulfide 7-14
notes: also called C-terminal biotin tagged BACE020 peptide
[1]
  Fold Decrease in Binding EC50 (Mut)/EC50 (WT): 0.8 fold
[2]
  Fold Decrease in Binding EC50 (Mut)/EC50 (WT): 1020 fold
[3]
  Fold Decrease in Binding EC50 (Mut)/EC50 (WT): 2.4 fold
[4]
  Fold Decrease in Binding EC50 (Mut)/EC50 (WT): 2.6 fold
[5]
  Fold Decrease in Binding EC50 (Mut)/EC50 (WT): 4.5 fold
[6]
  Fold Decrease in Binding EC50 (Mut)/EC50 (WT): 1990 fold
[7]
  Fold Decrease in Binding EC50 (Mut)/EC50 (WT): 2210 fold
[8]
  Fold Decrease in Binding EC50 (Mut)/EC50 (WT): 488 fold
[9]
  Fold Decrease in Binding EC50 (Mut)/EC50 (WT): 568 fold
[10]
  Fold Decrease in Binding EC50 (Mut)/EC50 (WT): 0.9 fold
[11]
  Fold Decrease in Binding EC50 (Mut)/EC50 (WT): 1.9 fold
[12]
  Fold Decrease in Binding EC50 (Mut)/EC50 (WT): 2.7 fold
[13]
  Fold Decrease in Binding EC50 (Mut)/EC50 (WT): 349 fold
[14]
  Fold Decrease in Binding EC50 (Mut)/EC50 (WT): 1 fold
[15]
  Fold Decrease in Binding EC50 (Mut)/EC50 (WT): 73.6 fold
[16]
  Fold Decrease in Binding EC50 (Mut)/EC50 (WT): 1 fold
[17]
  Fold Decrease in Binding EC50 (Mut)/EC50 (WT): 70.9 fold
[18]
  Fold Decrease in Binding EC50 (Mut)/EC50 (WT): 1 fold
